Measurements taken from patent publication US6100053A, “Microbial transglutaminases, their production and use” (priority 1994, dated 2000).
Like-named read-outs stand apart in the source and are kept apart here.

Columns and labels:
[1] = test system: TGase from strain Moo5A10; assay: PMSF inhibition, putrescine assay; format: biochemical, Moo5A10 (DSM 10094); details: 1.6 mM PMSF; 1 h, 30° C., pH 8.5, α-casein + EDTA; -PMSF = 100
Protocol: (§1) Each of these washes takes place for 5 min. […] The washed filters are counted directly in scintillation vials.
(§2) A putrescine control assay was performed to investigate whether TGases from different bacterial strains are sensitive to PMSF (phenyl methyl sulfonyl fluoride).
(§3) The assay was run under optimized conditions (see examples 1-3), i.e. 1 h incubation at 30° C., pH 8.5 (2% α-casein+EDTA in 100 mM modified Britton-Robinson-buffer 0.1 M, pH 8.5). Final concentration of PMSF was 1.6 mM. As control an assay including propanol was included: propanol is the solvent of PMSF. This assay ensures that solvent effects are excluded. The assay contained 0.9 M 2-propanol i.e. the same concentration as in PMSF containing assay (addition of 8 μl propanol from 13 M instead of 8 μl PMSF in 2-propanol).

[2] = test system: TGase from Bacteridium (CBS 495.74); assay: PMSF inhibition, putrescine assay; format: biochemical, Bacteridium sp. CBS 495.74; details: 1.6 mM PMSF; 1 h, 30° C., pH 8.5, α-casein + EDTA; -PMSF = 100
Protocol: as §1, §2, §3

[3] = test system: TGase from Bacillus mycoides; assay: PMSF inhibition, putrescine assay; format: biochemical; details: 1.6 mM PMSF; 1 h, 30° C., pH 8.5, α-casein + EDTA; -PMSF = 100
Protocol: as §1, §2, §3

[4] = target: T1, TGase from Streptomyces lydicus (Streptomyces nigrescens, UniProt A0ABY7I822); assay: PMSF inhibition, putrescine assay; format: biochemical
T1 construct: mature 331 aa, N-terminus […]
T1 sequence (A0ABY7I822 88-418): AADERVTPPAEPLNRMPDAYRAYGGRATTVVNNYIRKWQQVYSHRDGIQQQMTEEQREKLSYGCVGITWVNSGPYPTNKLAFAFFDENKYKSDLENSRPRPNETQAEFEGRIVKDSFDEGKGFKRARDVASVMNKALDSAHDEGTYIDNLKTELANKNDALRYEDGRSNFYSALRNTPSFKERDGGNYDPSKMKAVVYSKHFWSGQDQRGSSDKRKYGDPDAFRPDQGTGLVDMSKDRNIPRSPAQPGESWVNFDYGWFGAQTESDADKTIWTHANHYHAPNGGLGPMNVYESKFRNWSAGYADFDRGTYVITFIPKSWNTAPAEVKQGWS
Protocol: as §1, §2, §3

[5] = test system: TGase from Bacillus firmus; assay: PMSF inhibition, putrescine assay; format: biochemical; details: 1.6 mM PMSF; 1 h, 30° C., pH 8.5, α-casein + EDTA; -PMSF = 100
Protocol: as §1, §2, §3

[6] = test system: TGase from Bacillus badius; assay: PMSF inhibition, putrescine assay; format: biochemical; details: 1.6 mM PMSF; 1 h, 30° C., pH 8.5, α-casein + EDTA; -PMSF = 100
Protocol: as §1, §2, §3

[7] = test system: TGase from Bacillus aneurinolyticus; assay: PMSF inhibition, putrescine assay; format: biochemical; details: 1.6 mM PMSF; 1 h, 30° C., pH 8.5, α-casein + EDTA; -PMSF = 100
Protocol: as §1, §2, §3

[8] = test system: TGase from Bacteridium (DSM 10093); assay: PMSF inhibition, putrescine assay; format: biochemical, Bacteridium sp. DSM 10093; details: 1.6 mM PMSF; 1 h, 30° C., pH 8.5, α-casein + EDTA; -PMSF = 100
Protocol: as §1, §2, §3

[9] = target: T2, purified transglutaminase from S. mobaraense (Streptomyces mobaraensis, UniProt P81453); assay: PMSF sensitivity of purified transglutaminase; format: biochemical, Streptoverticillium mobaraense
T2 sequence (P81453 77-407): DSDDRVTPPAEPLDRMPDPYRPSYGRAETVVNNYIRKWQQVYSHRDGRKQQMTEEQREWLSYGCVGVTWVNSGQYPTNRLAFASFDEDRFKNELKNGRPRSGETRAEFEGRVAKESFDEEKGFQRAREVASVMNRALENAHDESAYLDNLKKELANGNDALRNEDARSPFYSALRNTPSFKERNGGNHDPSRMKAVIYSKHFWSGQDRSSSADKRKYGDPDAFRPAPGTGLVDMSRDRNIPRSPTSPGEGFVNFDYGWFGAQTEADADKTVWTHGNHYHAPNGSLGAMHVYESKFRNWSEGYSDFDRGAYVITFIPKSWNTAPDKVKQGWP
Protocol: as §2

[10] = target: Ca2+-independent transglutaminase from Streptomyces platensis (Streptomyces platensis, UniProt A5PHK5); details: 50 μM inhibitor, nine fold molar excess to cysteine; 2 h at room temperature in the putrescine assay; duplicate
[11] = target: transglutaminase from S. mobaraense (Streptomyces mobaraensis, UniProt P81453); details: 1 mM inhibitor, preincubation 30 min at 25° C.; cited from earlier work
α-casein [12] = target: α-casein
α-casein [13] = target: α-casein; remark: listed apart in the source

Sequence of Ca2+-independent transglutaminase from Streptomyces platensis (A5PHK5 88-418): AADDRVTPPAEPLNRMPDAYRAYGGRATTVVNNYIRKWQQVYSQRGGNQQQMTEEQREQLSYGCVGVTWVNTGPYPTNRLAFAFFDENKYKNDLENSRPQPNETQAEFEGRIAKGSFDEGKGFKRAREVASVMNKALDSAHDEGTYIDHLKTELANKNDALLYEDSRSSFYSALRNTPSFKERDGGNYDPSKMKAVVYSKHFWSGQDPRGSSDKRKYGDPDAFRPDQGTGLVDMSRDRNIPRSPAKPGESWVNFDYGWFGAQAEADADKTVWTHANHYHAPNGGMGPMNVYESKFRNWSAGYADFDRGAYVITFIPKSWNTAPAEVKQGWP

Molecule: O=S(=O)(F)Cc1ccccc1 [PMSF, phenylmethylsulfonylfluoride]
- Relative activity (%) +PMSP [1]: 75%
- Relative activity (%) +PMSP [2]: 75%
- Relative activity (%) +PMSP [3]: 35%
- Relative activity (%) +PMSP ([4]; 1.6 mM PMSF, 1 h, 30° C., pH 8.5, α-casein + EDTA, -PMSF = 100): 175%
- sensitivity to PMSF ([4]; purified transglutaminase): insensitive
- Relative activity (%) +PMSP [5]: 55%
- Relative activity (%) +PMSP [6]: 62%
- Relative activity (%) +PMSP [7]: 47%
- Relative activity (%) +PMSP [8]: 75%
- sensitivity to PMSF [9]: insensitive

Molecule: O=C(O)CI [mono-iodoacetic acid]
- residual activity [10]: no residual activity
- residual activity [11]: 76%

Molecule: Ca2+-independent transglutaminase from Streptomyces platensis (enzyme)
- Units/ml (putrescine assay) (α-casein [12]): 1.4 units/ml

Molecule: TGase sample of B. amyloliquefaciens (pool or library)
- Units/ml (putrescine assay) (α-casein [12]): 0.06 units/ml

Molecule: TGase sample of Bacillus aneurinolyticus (pool or library)
- Units/ml (putrescine assay) (α-casein [12]): 0.8 units/ml

Molecule: TGase sample of Bacillus badius (pool or library)
- Units/ml (putrescine assay) (α-casein [12]): 0.8 units/ml

Molecule: TGase sample of Bacillus firmus, ATCC 17060 (pool or library)
- Units/ml (putrescine assay) (α-casein [12]): 0.6 units/ml

Molecule: TGase sample of Bacillus firmus, DSM 12 (pool or library)
- Units/ml (putrescine assay) (α-casein [12]): 0.03 units/ml

Molecule: TGase sample of Bacillus megaterium, AJ 3355 (pool or library)
- Units/ml (putrescine assay) (α-casein [12]): 0.03 units/ml

Molecule: TGase sample of Bacillus megaterium, ATCC 13632 (pool or library)
- Units/ml (putrescine assay) (α-casein [12]): 0.02 units/ml

Molecule: TGase sample of Bacillus megaterium, ATCC 15450 (pool or library)
- Units/ml (putrescine assay) (α-casein [12]): 0.02 units/ml

Molecule: TGase sample of Bacillus mycoides (pool or library)
- Units/ml (putrescine assay) (α-casein [12]): 0.4 units/ml

Molecule: TGase sample of Bacillus sp., ATCC 21537 (pool or library)
- Units/ml (putrescine assay) (α-casein [12]): 0.1 units/ml

Molecule: TGase sample of Bacteridium sp., CBS 495.74 (pool or library)
- Units/ml (putrescine assay) (α-casein [12]): 0.5 units/ml

Molecule: TGase sample of Bacteridium sp., DSM 10093 (pool or library)
- Units/ml (putrescine assay) (α-casein [12]): 0.3 units/ml

Molecule: TGase sample of Hafnia alvei (pool or library)
- Units/ml (putrescine assay) (α-casein [12]): 0.3 units/ml

Molecule: TGase sample of Hydrogenophaga palleroni (Basonym: Pseudomonas palleroni) (pool or library)
- Units/ml (putrescine assay) (α-casein [12]): 0.6 units/ml

Molecule: TGase sample of Kitasatao purpurea (pool or library)
- Units/ml (putrescine assay) (α-casein [12]): 0.3 units/ml

Molecule: TGase sample of Pseudomonas amyloderamosa (pool or library)
- Units/ml (putrescine assay) (α-casein [12]): 0.08 units/ml

Molecule: TGase sample of Pseudomonas putida, DSM 1693 (pool or library)
- Units/ml (putrescine assay) (α-casein [12]): 0.84 units/ml

Molecule: TGase sample of Pseudomonas putida, NCIMB 9869 (pool or library)
- Units/ml (putrescine assay) (α-casein [12]): 1.4 units/ml

Molecule: TGase sample of Rothia dentocariosa (pool or library)
- Units/ml (putrescine assay) (α-casein [12]): 0.9 units/ml

Molecule: TGase sample of Streptomyces nigrescens (pool or library)
- Units/ml (putrescine assay) (α-casein [12]): 0.3 units/ml

Molecule: TGase sample of Streptomyces sioyaensis (pool or library)
- Units/ml (putrescine assay) (α-casein [12]): 3.3 units/ml

Molecule: TGase sample of Zymomonas mobilis (pool or library)
- Units/ml (putrescine assay) (α-casein [12]): 0.36 units/ml

Molecule: transglutaminase from Streptomyces lydicus, NRRL B-3446 (former Streptomyces libani) (enzyme)
- Units/ml (putrescine assay) (α-casein [12]): 1.3 units/ml

Molecule: transglutaminase preparation (culture broth) of Pholiota jahnii (pool or library)
- Units/ml (putrescine assay) (α-casein [13]): 0.21 Units/ml

Molecule: transglutaminase preparation (culture broth) of Pleurotus dryinus (pool or library)
- Units/ml (putrescine assay) (α-casein [13]): 0.22 Units/ml

Molecule: transglutaminase preparation (culture broth) of Pleurotus sp. (pool or library)
- Units/ml (putrescine assay) (α-casein [13]): 2.36 Units/ml

Molecule: transglutaminase preparation (culture broth) of Podospora tetraspora (pool or library)
- Units/ml (putrescine assay) (α-casein [13]): 0.3 Units/ml

Molecule: transglutaminase preparation (culture broth) of Preussia isomera (pool or library)
- Units/ml (putrescine assay) (α-casein [13]): 0.22 Units/ml

Molecule: transglutaminase preparation (culture broth) of Psathyrella condolleana (pool or library)
- Units/ml (putrescine assay) (α-casein [13]): 0.19 Units/ml

Molecule: transglutaminase preparation (culture broth) of Pycnoporus cinnabarinus (pool or library)
- Units/ml (putrescine assay) (α-casein [13]): 0.14 Units/ml

Molecule: transglutaminase preparation (culture broth) of Rhizoctonia solani (pool or library)
- Units/ml (putrescine assay) (α-casein [13]): 0.17 Units/ml

Molecule: transglutaminase preparation (culture broth) of Savoryella lignicola (pool or library)
- Units/ml (putrescine assay) (α-casein [13]): 6.24 Units/ml

Molecule: transglutaminase preparation (culture broth) of Scytinostroma portentosum (pool or library)
- Units/ml (putrescine assay) (α-casein [13]): 0.14 Units/ml

Molecule: transglutaminase preparation (culture broth) of Sporormiella australis (pool or library)
- Units/ml (putrescine assay) (α-casein [13]): 0.13 Units/ml

Molecule: transglutaminase preparation (culture broth) of Sporormiella minima (pool or library)
- Units/ml (putrescine assay) (α-casein [13]): 0.2 Units/ml

Molecule: transglutaminase preparation (culture broth) of Stropharia coerulea (pool or library)
- Units/ml (putrescine assay) (α-casein [13]): 0.16 Units/ml

Molecule: transglutaminase preparation (culture broth) of Talaromyces helicus (pool or library)
- Units/ml (putrescine assay) (α-casein [13]): 0.23 Units/ml

Molecule: transglutaminase preparation (culture broth) of Trametes hirsuta (pool or library)
- Units/ml (putrescine assay) (α-casein [13]): 0.21 Units/ml

Molecule: transglutaminase preparation (culture broth) of Trichoderma harzianum (pool or library)
- Units/ml (putrescine assay) (α-casein [13]): 0.25 Units/ml

Molecule: transglutaminase preparation (culture broth) of Tricholoma flavovirens (pool or library)
- Units/ml (putrescine assay) (α-casein [13]): 0.16 Units/ml

Molecule: transglutaminase preparation (culture broth) of Tricholoma myomyces (pool or library)
- Units/ml (putrescine assay) (α-casein [13]): 0.23 Units/ml

Molecule: transglutaminase preparation (culture broth) of Valsa pini (pool or library)
- Units/ml (putrescine assay) (α-casein [13]): 0.73 Units/ml

Molecule: transglutaminase preparation (culture broth) of Warcupiella spinulosa (pool or library)
- Units/ml (putrescine assay) (α-casein [13]): 0.41 Units/ml

Molecule: transglutaminase preparation (culture broth) of Xylaria sp (pool or library)
- Units/ml (putrescine assay) (α-casein [13]): 0.28 Units/ml
